Data on 18 molecules can be found in US20170342126A1 (MAYO FOUNDATION FOR MEDICAL EDUCATION AND RESEARCH, published 2017).

The target in test [1] is HLA-DR DRB1*1302 (human). Kind of test: radioligand inhibition, purified HLA-DR.
In a further test the target is HLA-DR DRB1*1501 (human). Kind of test: radioligand inhibition, purified HLA-DR.
The target of test [2] is purified HLA-DR molecule DRB1*1302 (human). As to the kind of experiment: radioligand inhibition, purified HLA-DR.
Test [3] deals with purified HLA-DR molecule DRB5*0101 (human). As to the kind of experiment: radioligand inhibition, purified HLA-DR.
The target in the next test is HLA-DR DRB1*0701 (human). As to the kind of experiment: radioligand inhibition, purified HLA-DR.
The target in another test is HLA-DR DRB5*0101 (human). As to the kind of experiment: radioligand inhibition, purified HLA-DR.
In a further test the target is HLA-DR DRB1*0901 (human). As to the kind of experiment: radioligand inhibition, purified HLA-DR.
In test [4] the target is purified HLA-DR molecule DRB1*0901 (human). As to the kind of experiment: radioligand inhibition, purified HLA-DR.
In test [5] the target is at least four different HLA-DR variants (of 15 different purified HLA-DR molecules). As to the kind of experiment: radioligand inhibition, purified HLA-DR.
The target in the next test is T1, HLA-DR DRB1*0802 (human).
T1 chain 1: not shown
T1 chain 2: not shown
As to the kind of experiment: radioligand inhibition, purified HLA-DR. To be noted: remark: other sources report otherwise.

Another test addresses T2, HLA-DR DRB1*0404 (human).
T2 chain 1: not shown
T2 chain 2: not shown
Kind of test: radioligand competition, purified HLA-DR. The conditions noted are these: remark: other sources report otherwise. On the technique in general: In a radioligand displacement assay an active substance lowers the binding of a labelled ligand.

The next test addresses T3, HLA-DR DRB1*0405 (human).
T3 chain 1: not shown
T3 chain 2: not shown
As to the kind of experiment: radioligand competition, purified HLA-DR. The conditions noted are these: remark: other sources report otherwise.

For test [6], the target named is T4, HLA-DR DRB1*0401 (human).
T4 chain 1: not shown
T4 chain 2: not shown
Kind of test: radioligand competition, purified HLA-DR. To be noted: remark: other sources report otherwise.

The target of test [7] is T4, HLA-DR DRB1*0401 (human). Kind of test: radioligand inhibition, purified HLA-DR. To be noted: remark: other sources report otherwise.
For test [8], the target named is T5, HLA-DR DRB1*1302 (human).
T5 chain 1: not shown
T5 chain 2: not shown
Kind of test: radioligand inhibition, purified HLA-DR. To be noted: remark: other sources report otherwise.

The target of a further test is T6, HLA-DR DRB4*0101 (human).
T6 chain 1: not shown
T6 chain 2: not shown
As to the kind of experiment: radioligand inhibition, purified HLA-DR. The conditions noted are these: remark: other sources report otherwise.

The target of a further test is T7, HLA-DR DRB1*0101 (human).
T7 chain 1: not shown
T7 chain 2: not shown
As to the kind of experiment: radioligand competition, purified HLA-DR. To be noted: remark: other sources report otherwise.

Like-named read-outs stand apart in the source and are kept apart here.

Take Peptide 9019.0115, CEA.126: the IC50 (as a rule, the concentration needed to halve the response being measured) turned out to be 394 nM in the test with HLA-DR DRB1*1302 (human) [1] and 376 nM with HLA-DR DRB1*1501 (human).

Regarding Peptide 9019.0126 (CEA.354), the IC50 came out at 1920 nM in [2] and 2280 nM in test [3].

Turning to Peptide 9019.0005, CEA.122, the IC50 in the test with HLA-DR DRB1*1302 (human) [1] turned out to be 9960 nM; with HLA-DR DRB1*0701 it was 6340 nM.

Turning to Peptide 9019.0126, CEA.354, the IC50 with HLA-DR DRB1*1302 (human) [1] amounted to 1920 nM; with HLA-DR DRB5*0101 (human) it was 2280 nM.

Turning to Peptide 9019.0118, CEA.176, the IC50 with HLA-DR DRB1*0901 (human) turned out to be 1910 nM.

Regarding Peptide 9019.0009, Cyclin D1.129, in the test with HLA-DR DRB1*1302 (human) [1], the IC50 is 3490 nM.

Molecule Peptide 9019.0118 (CEA.176) gave an IC50 in [4] of 1910 nM. This counts as single-digit micromolar.

B1: Peptide 9019.0034, Her2/neu.88 (peptide)
peptide: HNQVRQVPLQRLRIV
With B1, the IC50 in test [5] was < 1000 nM; with HLA-DR DRB1*0802 (human), 95 nM.

B2: Peptide 9019.0135 (peptide)
peptide: VCGIQNSVSANRSDP
With B2, the IC50 with HLA-DR DRB1*0404 (human) was 26 nM; in the test with HLA-DR DRB1*0405 (human), 1850 nM.

B3: Peptide 9019.0027, Her2/neu.28 (peptide)
peptide: GTDMKLRLPASPETH
The molecule B3 registered an IC50 with HLA-DR DRB1*0701 of 6810 nM.

B4: Peptide 9019.0159 (peptide)
peptide: KLCIYTDNSIRPEEL
On to B4, for which the IC50 in the test with HLA-DR DRB1*0401 (human) [6] was 95 nM; with HLA-DR DRB1*0405 (human), 3170 nM.

B5: 9019.0186 (peptide)
peptide: KELAVFREKVTEQHR
In the test with HLA-DR DRB1*0401 (human) [7], B5 yielded an IC50 of 21 nM.

B6: Peptide 9019.0037, Her2/neu.126 (peptide)
peptide: TTPVTGASPGGLREL
In the test with HLA-DR DRB1*1302 (human) [8], B6 came in with an IC50 of 605 nM.

B7: 9019.0110 (peptide)
peptide: GYVIGTQQATPGPAY
As for B7, the IC50 in the test with HLA-DR DRB4*0101 (human) was found to be 6.3 nM.

B8: Peptide 9019.0044 (peptide)
peptide: CYGLGMEHLREVRAV
In the test with HLA-DR DRB1*0101 (human), B8 had an IC50 of 139 nM.

B9: Peptide 9019.0168, Cyclin D1.182 (peptide)
peptide: AQTFVALCATDVKFI
For B9, the IC50 in test [5] is < 1000 nM.

B10: Peptide 9019.0119 (peptide)
peptide: SDSVILNVLYGPDAP
As to B10, in the test with HLA-DR DRB1*0405 (human), the IC50 was determined as 1450 nM.

B11: Peptide 9019.0039 (peptide)
peptide: TEILKGGVLIQRNPQ
Regarding B11, the IC50 in the test with HLA-DR DRB1*0101 (human) turned out to be 71 nM.
